From paper PMC2904616 come the findings set out here.

Substrate in the series: CC(C)=CCC/C(C)=C/CC/C(C)=C/CO[P@@](=O)(O)OP(=O)(O)O
Briefly: purified protein. Type of series: biochemical, Streptomyces avermitilis. As to conditions: MgCl2; labelled compound ([1-3H]FPP).

As usually defined, the Km is the substrate concentration at which the rate is half of its maximum. As a reminder, the kcat is the maximal rate divided by the concentration of active sites.

B1: SAV_76 (avermitilol synthase) (Streptomyces avermitilis MA-4680 = NBRC 14893) (protein)
chain: MPQDIDFGLPAPAGISPGLEATRRHNLGWVRRLGLVGDGPSLAWYTSWDMPRLAACGFPHARGAALDLCADAMAFFFVFDDQFDGPLGRDPARAARVCRRLTGIVHGAGPGPGADACSAAFADVWARSTDGAHPGWVARTAHEWEYYFAAQAHEAINRLRGTPGDMESYLQVRRGIAGTDLPLSLGERAAGITVPAAAFHSPQLRIMREAAIDVTLMCNDVYSLEKEEARGDMDNLVLVIEHARRCTRDEAVTAARGEVARRVIRFEQLAREVPALCAQLGLSAVERAHVDTYLGVMEAWMSGYHAWQTQTRRYTGAPHVLPSTGPGYFDEVLPT
As for B1, the Michaelis constant (Km) was determined as 1.06 ± 0.11 µM and the catalytic constant (kcat) is 0.040 ± 0.001 s⁻¹.
